Laboratory results as given in US7033999B2, “Nitrosated and nitrosylated heme proteins” (Brigham and Women's Hospital, priority 1991, dated 2006).
Like-named read-outs stand apart in the source and are kept apart here.

What was measured:
[1] = target: T1, PAI-1 (Homo sapiens, UniProt P05121); experiment: Inhibition of t-PA and S—NO-t-PA enzymatic activity by PAI-1 (S2288); type: biochemical; settings: direct chromogenic assay with S2288; n=3
T1 construct: gift of Dr. Douglas E. Vaughan
Description: The amidolytic activities of t-PA and its S-nitrosylated derivative were measured using the relatively specific chromogenic substrate, S2288. Substrate hydrolysis was measured spectrophotometrically at 405 nm with a Gilford Response UV/Vis Spectrophotometer (CIBA-Corning, Oberlin, Ohio). Activity was measured at 25° C. in TBS using substrate concentrations varying from 0.1–2.0 mM and t-PA at a concentration of 100 nM. Kinetic parameters were determined from initial rates by double reciprocal plot analysis. The assessment of inhibition of t-PA and S—NO-t-PA enzymatic activity by PAI-1 was made at an enzyme concentration of 10 nM and a molar ratio of t-PA to active PAI-1 of 1.0. The degree of inhibition was determined relative to the initial rates in the absence of the inhibitor.

[2] = target: T2, fibrinogen (Homo sapiens, UniProt P02671+P02675+P02679); experiment: Binding of t-PA and S—NO-t-PA to fibrinogen-coated wells (ELISA)
T2 construct: purchased Enzyme Research Laboratories, South Bend, Ind
T2 sequence (P02671 20-629 limits assumed): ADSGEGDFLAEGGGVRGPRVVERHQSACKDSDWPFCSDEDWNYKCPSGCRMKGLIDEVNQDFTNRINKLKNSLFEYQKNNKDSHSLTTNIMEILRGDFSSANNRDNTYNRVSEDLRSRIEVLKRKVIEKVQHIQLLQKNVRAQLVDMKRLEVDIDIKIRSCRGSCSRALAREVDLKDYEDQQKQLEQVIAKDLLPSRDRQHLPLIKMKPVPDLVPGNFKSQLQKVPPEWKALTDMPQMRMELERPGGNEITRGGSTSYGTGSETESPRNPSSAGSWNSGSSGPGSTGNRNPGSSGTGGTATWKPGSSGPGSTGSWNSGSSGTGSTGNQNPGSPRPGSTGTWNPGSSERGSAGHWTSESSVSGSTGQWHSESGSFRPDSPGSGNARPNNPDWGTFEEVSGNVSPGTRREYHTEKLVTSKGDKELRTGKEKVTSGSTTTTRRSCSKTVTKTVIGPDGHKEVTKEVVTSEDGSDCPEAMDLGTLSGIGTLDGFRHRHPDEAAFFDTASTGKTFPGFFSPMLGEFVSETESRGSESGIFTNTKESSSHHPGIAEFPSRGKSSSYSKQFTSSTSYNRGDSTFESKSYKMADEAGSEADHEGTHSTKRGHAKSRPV
T2 sequence (P02675 31-491): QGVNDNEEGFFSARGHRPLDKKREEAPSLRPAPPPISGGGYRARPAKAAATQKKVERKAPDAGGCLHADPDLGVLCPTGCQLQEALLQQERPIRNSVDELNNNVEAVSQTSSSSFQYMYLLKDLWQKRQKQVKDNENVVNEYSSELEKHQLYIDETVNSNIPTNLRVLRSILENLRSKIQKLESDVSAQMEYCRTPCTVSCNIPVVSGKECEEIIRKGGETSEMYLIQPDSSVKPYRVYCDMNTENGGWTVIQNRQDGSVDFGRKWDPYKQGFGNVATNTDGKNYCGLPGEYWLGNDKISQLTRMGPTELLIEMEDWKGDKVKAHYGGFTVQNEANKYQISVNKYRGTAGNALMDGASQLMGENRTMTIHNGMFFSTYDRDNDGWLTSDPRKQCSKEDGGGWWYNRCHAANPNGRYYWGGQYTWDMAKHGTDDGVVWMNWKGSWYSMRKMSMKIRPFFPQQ
T2 sequence (P02679 27-433 limits assumed): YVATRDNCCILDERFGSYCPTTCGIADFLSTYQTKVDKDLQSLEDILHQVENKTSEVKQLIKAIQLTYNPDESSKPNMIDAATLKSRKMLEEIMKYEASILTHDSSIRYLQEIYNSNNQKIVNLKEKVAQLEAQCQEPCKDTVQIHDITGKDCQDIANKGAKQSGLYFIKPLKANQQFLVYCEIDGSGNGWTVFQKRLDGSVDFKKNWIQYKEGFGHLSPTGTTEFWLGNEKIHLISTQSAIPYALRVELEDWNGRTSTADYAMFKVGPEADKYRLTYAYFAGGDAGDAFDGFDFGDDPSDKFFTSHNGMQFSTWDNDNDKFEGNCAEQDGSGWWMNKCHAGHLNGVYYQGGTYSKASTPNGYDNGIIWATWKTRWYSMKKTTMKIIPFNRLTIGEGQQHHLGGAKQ
Description: The binding of t-PA and S——NO-t-PA to fibrinogen was measured using polystyrene microliter wells (flat-bottom, high binding 96-well EIA plates, cat. #3590, Costar, Cambridge, Mass.). Wells were coated with fibrinogen (0.08 ug/ul) and the remaining binding sites with 2% bovine serum albumin. Quantification of t-PA binding was determined using a Horse-Radish Peroxidase linked sheep antimurine antibody in a colorimetric assay in the presence of O-phenylenediamine, 0.014% H2O2. Color change was measured spectrophotometrically with a Dynatech MR500 Card Reader (Dynatech, Chantilly, Va.) at 490 nm.
Binding of t-PA is reversible and specific, and saturates at 1500–3000 nM; at saturation, 18 ng of t-PA are bound per well ([…] moles t-PA per mole of fibrinogen) with an estimated KDin the range of 15–650 nM. Binding of t-PA and S—NO-t-PA was quantified by ELISA over the concentration range of 150–1500 nM using a mixture containing six murine monoclonal anti-t-PA antibodies.

T1 sequence (P05121 24-402, species assumed): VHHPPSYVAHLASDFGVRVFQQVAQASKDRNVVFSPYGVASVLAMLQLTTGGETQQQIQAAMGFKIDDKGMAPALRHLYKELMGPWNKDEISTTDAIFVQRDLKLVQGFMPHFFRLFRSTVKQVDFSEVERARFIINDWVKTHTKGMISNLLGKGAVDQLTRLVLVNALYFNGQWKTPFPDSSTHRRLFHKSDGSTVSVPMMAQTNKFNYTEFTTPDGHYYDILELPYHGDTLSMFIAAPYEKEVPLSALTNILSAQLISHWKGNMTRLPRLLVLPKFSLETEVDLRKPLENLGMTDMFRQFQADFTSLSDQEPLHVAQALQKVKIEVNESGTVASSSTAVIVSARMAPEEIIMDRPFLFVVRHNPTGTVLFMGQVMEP

Row | inhibition of hydrolytic activity by PAI-1 [1] | Kd ([2]; Scatchard analysis, read-out: estimated apparent DD for surface-bound fibrinogen) [nM] | binding isotherm compared with t-PA ([2]; two-way ANOVA) | moles t-PA per mole of fibrinogen at saturation ([2]; at saturation) | t-PA bound per well at saturation ([2]; at saturation) [ng] | concentration at which binding saturates ([2]; fibrinogen-coated wells) [nM] | Kd ([2]; fibrinogen-coated wells, read-out: estimated KD of binding to fibrinogen) [nM] | Substance
1 | equally effective | 450 | not significantly different |  |  |  |  | S—NO-t-PA: derived from the nitrosylation of tissue-type plasminogen activator (t-PA)
2 | equally effective |  |  | 0105 moles t-PA per mole of fibrinogen | 18 | 1500 to 3000 | 15 to 650 | t-PA: tissue-type plasminogen activator, provided by Genentech
